Experimental findings from PMC2259325, “Hepatitis C virus NS5A protein binds the SH3 domain of the Fyn tyrosine kinase with high affinity: mutagenic analysis of residues within the SH3 domain that contribute to the interaction” (Virology Journal, 2008) are described below.

This assay concerns the target T1, NS5A(Δ32), N-terminally truncated hepatitis C virus non-structural 5A protein (hepatitis C virus (genotype 1b, J4 …, UniProt O92972 2005-2419)).
T1 construct: source: E. coli BL21 pLysS (DE3), purified (Ni-NTA, gel filtration on Superdex75)
T1 sequence: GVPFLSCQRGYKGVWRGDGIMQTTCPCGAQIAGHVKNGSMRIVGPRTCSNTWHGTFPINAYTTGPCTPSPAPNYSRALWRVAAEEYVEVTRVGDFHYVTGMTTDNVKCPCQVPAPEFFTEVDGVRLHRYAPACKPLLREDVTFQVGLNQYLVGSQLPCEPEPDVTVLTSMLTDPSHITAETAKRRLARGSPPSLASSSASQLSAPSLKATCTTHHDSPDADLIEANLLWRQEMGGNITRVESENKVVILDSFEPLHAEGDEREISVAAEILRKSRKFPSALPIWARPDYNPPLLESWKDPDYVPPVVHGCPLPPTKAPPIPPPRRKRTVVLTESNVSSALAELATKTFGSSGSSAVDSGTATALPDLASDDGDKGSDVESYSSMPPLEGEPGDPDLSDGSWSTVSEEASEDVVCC
Put plainly: SPR; Biacore 3000, HBS buffer (10 mM Hepes-NaOH pH 7.4, 150 mM NaCl, 0.005% Tween-20), 25°C; GST-SH3 captured on CM5 chip via amine-coupled anti-GST antibody; NS5A 3 μM - 100 nM flowed over, in triplicate; 1:1 Langmuir fit. The settings on record: both partners purified.

B1: GST-Fyn SH3 domain fusion protein (wild type) (domain or fragment)
chain: not shown
notes: source: expressed and purified as previously described [6]
With B1, the dissociation rate constant (koff) turned out to be 0.00308 s⁻¹ and the kon is 4930 M⁻¹ s⁻¹.
